The values that follow come from publication PMC5715260.

Common to all, as to test: high performance liquid chromatography; mass of the native TTR compared with the subunit mass; data not shown
The target of test [1] is pigC/crocTTR (Crocodylus porosus TTR with the C-terminal sequence changed to that of S. scrofa TTR) (Crocodylus porosus | Sus scrofa) (UniProt O55245).
Test [2] concerns the target pigC/huTTR (human TTR with the C-terminal sequence changed to that of Sus scrofa TTR) (human | Sus scrofa).
In test [3] the target is xenoN/pigC/huTTR (human TTR with the N-terminal and C-terminal sequences changed to those of Xenopus laevis and S. scrofa, respectively) (Xenopus laevis | human | Sus scrofa) (UniProt B7ZS96).

pigC/huTTR (human TTR with the C-terminal sequence changed to that of Sus scrofa TTR), sequence (P50390 whole entry): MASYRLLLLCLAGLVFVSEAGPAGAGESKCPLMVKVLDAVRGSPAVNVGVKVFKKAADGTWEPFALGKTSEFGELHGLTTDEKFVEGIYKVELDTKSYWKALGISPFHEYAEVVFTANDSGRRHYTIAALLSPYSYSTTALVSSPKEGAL
xenoN/pigC/huTTR (human TTR with the N-terminal and C-terminal sequences changed to those of Xenopus laevis and S. scrofa, respectively), sequence (P50390 whole entry, looked up): as the sequence (P50390 whole entry) above
xenoN/pigC/huTTR (human TTR with the N-terminal and C-terminal sequences changed to those of Xenopus laevis and S. scrofa, respectively), sequence (B7ZS96 whole entry, looked up): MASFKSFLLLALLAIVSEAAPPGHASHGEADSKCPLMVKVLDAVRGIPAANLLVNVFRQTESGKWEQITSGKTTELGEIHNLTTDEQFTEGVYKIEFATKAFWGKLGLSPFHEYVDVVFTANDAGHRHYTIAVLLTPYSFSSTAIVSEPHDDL

What is called stoichiometry N is the number of molecules, sites or subunits per partner or assembly. In the case of “pigC/crocTTR (Crocodylus porosus TTR with the C-terminal sequence changed to that of S. scrofa TTR) (from UniProt O55245 21-114; P50390 135-150)”, the stoichiometry N in test [1] amounted to 4.

Consider “pigC/huTTR (human TTR with the C-terminal sequence changed to that of Sus scrofa TTR) (from UniProt P50390 141-150)”, for which the stoichiometry N in test [2] was 4.

In test [3], “xenoN/pigC/huTTR (human TTR with the N-terminal and C-terminal sequences changed to those of Xenopus laevis and S. scrofa, respectively) (from UniProt B7ZS96 1-9; P50390 141-150)” displayed a stoichiometry N of 4.
